Laboratory results reported in patent US20040109857A1 (Novartis, published 2004).

Columns and labels:
[1] = target: chimpanzee CD40 expressed on peripheral blood B cells (chimpanzee) (UniProt K7BNQ5); test: cell-based or functional assay
[2] = target: T1, human CD40 (human, UniProt P25942 21-193, limits assumed); test: BIACore assay
T1 construct: CD40 as used in the BIACore assay; also called CD40 antigen

[3] = target: chimpanzee CD40 expressed on peripheral blood B cells (chimpanzee, UniProt K7BNQ5 21-277); test: cell-based or functional assay
Chain of chimpanzee CD40 expressed on peripheral blood B cells (K7BNQ5 entry or part of it limits assumed): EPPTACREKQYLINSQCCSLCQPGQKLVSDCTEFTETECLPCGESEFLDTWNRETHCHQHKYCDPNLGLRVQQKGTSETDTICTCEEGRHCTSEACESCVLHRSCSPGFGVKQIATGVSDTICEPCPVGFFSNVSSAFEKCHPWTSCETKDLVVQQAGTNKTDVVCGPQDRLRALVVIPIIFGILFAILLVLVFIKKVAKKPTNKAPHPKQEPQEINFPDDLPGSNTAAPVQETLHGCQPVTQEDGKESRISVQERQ

Chain of chimpanzee CD40 expressed on peripheral blood B cells (chimpanzee) (K7BNQ5 entry or part of it limits assumed): as above
T1 sequence (P25942 21-193 limits assumed): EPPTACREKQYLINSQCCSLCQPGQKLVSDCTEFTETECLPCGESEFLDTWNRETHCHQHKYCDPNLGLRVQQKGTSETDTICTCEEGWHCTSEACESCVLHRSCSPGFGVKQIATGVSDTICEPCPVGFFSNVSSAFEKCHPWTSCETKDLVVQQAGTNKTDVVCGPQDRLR

CD40L fold increase of proliferation over huIgG2 at 5 ug/ml; chimp PBMC, 1 sample [1] [fold]	Kd [2] [nM]	15B8 fold increase of proliferation over huIgG2; chimp PBMC, 1 sample, 15B8 5 ug/ml [3] [fold]	Molecule
10.2			human CD40L expressed on transfected cells (CHO cells; murine L-cells) (from UniProt P29965 1-261) (ligand)
	3.1	2.46	15B8, fully human anti-CD40 monoclonal antibody (antibody, human IgG2, V domains shown, Human IgG2 isotype with human kappa light chain, from hybridoma 15B8 (Xenomouse); two heavy and two light chains, 1,284 residues in all; In one FACS format it was directly FITC-labelled; also called antagonist anti-CD40 antibody 15B8; 15B8 MAb) VH: QVQLQESGGGVVQPGRSLRLSCAASGFTFNNFGIHWVRQAPGKGLEWVAVISYDGSDKYYADSVKGRFTISRDNSKNTLNLQMNSLRAEDTAVYYCARDRRYYYHYYGMDVWGQGTMVTVSS VL: DIVMTQSPLSLSVAPGQPASISCKSSQSLLESYGETYLYWYLQKPGQPPQLLIYAVFKRFSGVPDRFSGSGSGTDFTLKISRVEAEDVGVYYCMQSMQLPLTFGGGTKVEIK
